Laboratory results published in patent US20230159632A1 (SHANGHAI JUNSHI BIOSCIENCES, published 2023).
Numbering of substitutions follows the chain as printed.

T1: recombinant human IL-17A-mFc protein (human, UniProt Q16552 24-155, Biotinylated before the blocking assays of Examples 9 and 12 (sites not given); disulfide-linked dimer through IL-17A and the Fc.)
T1 construct: also called recombinant fusion protein IL-17A-mFc
T1 sequence: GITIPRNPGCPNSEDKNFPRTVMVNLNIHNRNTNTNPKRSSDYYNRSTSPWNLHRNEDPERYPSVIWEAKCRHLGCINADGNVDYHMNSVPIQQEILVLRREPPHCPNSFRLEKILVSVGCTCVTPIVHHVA

T2: human IL-17RA on stable IL-17RA 293F cell lines (human) (UniProt Q96F46)
T2 sequence (looked up): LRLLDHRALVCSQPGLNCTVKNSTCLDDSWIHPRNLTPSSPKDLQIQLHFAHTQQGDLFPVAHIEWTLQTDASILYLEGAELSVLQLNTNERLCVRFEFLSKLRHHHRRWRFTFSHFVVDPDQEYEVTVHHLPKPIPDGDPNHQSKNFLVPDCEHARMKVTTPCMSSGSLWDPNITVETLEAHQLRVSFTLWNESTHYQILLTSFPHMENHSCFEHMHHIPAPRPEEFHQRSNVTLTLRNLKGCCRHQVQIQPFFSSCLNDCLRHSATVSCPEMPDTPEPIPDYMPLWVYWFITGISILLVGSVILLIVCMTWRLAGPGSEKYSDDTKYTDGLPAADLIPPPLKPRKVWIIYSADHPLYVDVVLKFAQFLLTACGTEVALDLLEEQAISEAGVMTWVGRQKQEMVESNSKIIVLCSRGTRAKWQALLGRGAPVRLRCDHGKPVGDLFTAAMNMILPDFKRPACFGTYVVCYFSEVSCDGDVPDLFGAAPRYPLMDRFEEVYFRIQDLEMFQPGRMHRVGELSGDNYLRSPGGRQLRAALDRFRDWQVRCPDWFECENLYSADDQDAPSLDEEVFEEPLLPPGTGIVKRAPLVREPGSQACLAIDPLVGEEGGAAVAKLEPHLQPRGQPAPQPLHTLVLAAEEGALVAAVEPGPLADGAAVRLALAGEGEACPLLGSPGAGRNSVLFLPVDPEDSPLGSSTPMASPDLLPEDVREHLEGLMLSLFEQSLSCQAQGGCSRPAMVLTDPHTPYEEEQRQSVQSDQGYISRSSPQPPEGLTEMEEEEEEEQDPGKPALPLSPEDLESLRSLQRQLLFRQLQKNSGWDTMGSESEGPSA

B1: humanized antibody hu59 (antibody, human IgG4 S228P, kappa, V domains shown)
VH: QVQLQESGPGLVKPSETLSLTCTVTGYSISSDYAWSWIRQPPGKGLEWIGFISYSGPTSYNPSLKSRVTISRDTSKNQFSLKLSSVTAADTAVYYCARGGDGDSFDYWGQGTLVTVSS
VL: DVVMTQSPLSLPVTLGQPASISCRSSQSIVHSNGNTYLDWYLQKPGKSPKLLIYKVSNRFSGVPDRFSGSGSGTDFTLKISRVEAEDLGVYYCFQGSHFPTFGQGTKLEIKR
B2: humanized antibody hu250 (antibody, human IgG4 S228P, kappa, V domains shown)
VH: B1 VH with T25S, S30T, S80F, K82Q, S84K, L113T
VL: B1 VL with S7T, P12S, L15P, R24K, K47Q, L88V, Q104G, L108V
B3: humanized antibody hu60 (antibody, human IgG4 S228P, kappa, V domains shown)
VH: B1 VH
VL: B1 VL with K47Q, D75S
B4: humanized antibody hu43 (antibody, human IgG4 S228P, kappa, V domains shown)
VH: QIQLVQSGAEVKKPGASVKISCKASGYIFTNYGMNWMRQAPGQGLEWMGWINDHTGEPTYADKFQGRVTFTLDTSASTAYMELSRLRSDDTAVYYCANYGFGYFDYWGQGTLVTVSS
VL: DVVMTQSPLSLPVTLGQPASISCRSSQSLVHSNGNSYLHWYLQKPGQSPQLLIYKVSNRFSGVPDRFSGSGSGTDFTLKISRVEAEDVGVYYCSQSTHVPYTFGQGTKLEIKR
B5: humanized antibody hu44 (antibody, human IgG4 S228P, kappa, V domains shown)
VH: B4 VH
VL: B4 VL with Y92F
B6: humanized antibody hu31 (antibody, human IgG4 S228P, kappa, V domains shown)
VH: B4 VH with I2V, I20V, A76I
VL: B4 VL
notes: Humanized from ch1
B7: chimeric antibody ch1 (antibody, V domains shown)
VH: QIQLVQSGPELKKPGETVKISCKASGYIFTNYGMNWMKQAPGKGLKWMGWINDHTGEPTYADDFKGRFAFSLETSASTAYLQINNLKKEDTATYFCANYGFGYFDYWGQGTTLTVSS
VL: DVVMTQTPLSLPVSLGDQASISCRSSQSLVHSNGNSYLHWYLQKPGQSPKLLIYKVSNRFSGVPDRFSGSGSGTDFTLKISRVEAEDLGVYFCSQSTHVPYTFGGGTKLEIK
B8: chimeric antibody ch4 (antibody, V domains shown)
VH: B7 VH
VL: DVLMTQTPLSLPVSLGDQASISCRSSQSIVHSNGNTYLDWYLQKPGQSPKLLIYKVSNRFSGVPDRFSGSGSGTSFTLKISRVEAEDLGVYYCFQGSHFPTFGGGTKLEIK
B9: chimeric antibody ch2 (antibody, V domains shown)
VH: B7 VH
VL: B7 VL with M4V, S26G, N35H, S36T, L38F, V90I
B10: chimeric antibody ch7 (antibody, V domains shown)
VH: QVQLKESGPGLVAPSQSLSITCTVSGFSLINYDIHWLRQPPGKGLEWLGVIWAGGRTHSDSALMSRLSISKDNSKSQVFLNVHSLRPEDTAIYYCAREGGDYYKYLDFWGQGTTLTVSS
VL: DVKMTQSPSSMYASLGERVTITCKASHDINSYLSWFQQKPGKSPKTLIYRANGLVDGVPSRFSGSGSGQDYSLTISSLEYEDMGVYYCLQYEMLPLTFGAGTKLELK
B11: chimeric antibody ch16 (antibody, V domains shown)
VH: DVQLQESGPGLVKPSQSLSLTCTVTGYSITSDYAWSWIRQFPGNKLEWMAFISYSGPTSYNPSLKSRVSITRDTSKNQFFLQLKSVTTEDTATYYCARGGDGDSFDYWGQGTTLTVSS
VL: B8 VL

Biological target: T1, recombinant human IL-17A-mFc protein
Assay: ELISA, human IL-17A-mFc coated (method of Example 8)
Method: (§1) The binding specificity of the chimeric antibodies to human IL-17A was determined by conventional ELISA. Namely, 0.5 μg/mL of human IL-17A-mFc was immobilized on a 96-well plate and incubated for 60-90 minutes at 37° C. The solution in wells was then discarded, and the wells were washed 3 times with washing buffer, and blocked for 60 minutes with PBS containing 2% BSA. The plate was washed 3 times with washing buffer, and added with diluted chimeric antibodies at different concentrations. The antibodies were incubated at 37° C. for 60 minutes. The plate was then washed 3 times with washing buffer, and added with 10000-fold diluted biotinylated anti-IgG4 antibody. The system was incubated at 37° C. for 1 hour, washed three times with washing buffer, added with HRP-Strep 10000-fold diluted with washing buffer, and incubated at room temperature for 1 hour. After 3 washes with washing buffer, 100 μL of TMB substrate was added for color development. The system was incubated at room temperature for 30 minutes, and the reaction was terminated with 100 μL of 2 M hydrochloric acid solution. The absorbance at 450 nm was measured by a plate reader.
The binding specificity of the humanized antibodies to human IL-17A was determined by conventional ELISA. The method and procedures are described in Example 8.

EC50 [µg/mL] | Molecule
0.0061 | B1
0.00635 | B2
0.00578 | B3
0.00864 | B4
0.00676 | B5
0.00813 | B6

Biological target: T1, recombinant human IL-17A-mFc protein
Assay: ELISA, human IL-17A-mFc (0.5 µg/mL) coated, biotinylated anti-IgG4 detection
Method: as §1

EC50 [µg/mL] | Molecule
0.00662 | B7
0.0885 | B8
0.00517 | B9
0.04 | B10
0.0154 | B11

Biological target: T1, recombinant human IL-17A-mFc protein
Assay: competitive FACS: blocks binding of biotinylated human IL-17A-mFc to IL-17RA on 293F cells
Method: (§2) The blocking of binding of IL-17A to IL-17RA on cells was detected by a competitive cell-based flow cytometry (FACS) assay. Briefly, chimeric antibody dilutions of different concentrations (3-fold diluted from 10 μg/mL) were mixed with the pre-biotinylated human IL-17A-mFC (3 μg/mL) obtained in Example 1, and incubated at room temperature for 30 minutes. […] After 3 washes with PBS, 5 μg/mL of anti-mouse IgG was added and the system was incubated at room temperature for 30 minutes.
The blocking of binding of IL-17A to IL-17RA on cells was detected by a competitive cell-based flow cytometry (FACS) assay. The method and procedures are described in Example 9.

IC50 [µg/mL] | Molecule
0.467 | B1
0.578 | B2
0.483 | B3
0.781 | B4
0.829 | B5
0.868 | B6

Biological target: T1, recombinant human IL-17A-mFc protein
Assay: competitive FACS: blocks binding of biotinylated human IL-17A-mFc (3 µg/mL) to IL-17RA on 293F cells
Method: as §2

IC50 [µg/mL] | Molecule
4.46 | B7
3.15 | B9
1.22 | B10
1.45 | B11

Biological target: T2, human IL-17RA on stable IL-17RA 293F cell lines (human)
Assay: FACS, 3 µg/mL IL-17A-mFc on stable IL-17RA 293F cells, anti-mouse IgG detection; control group (1% BSA, no IL-17A-mFc) gave 308

MFI (mean fluorescence intensity) [MFI] | Molecule
7700 | recombinant human IL-17A-mFc protein (from UniProt Q16552 24-155) (Fc fusion)
